Results: US20210403595 (published 2021)
Where a chain is given by its changes, count along the chain named.

T1: cynomolgus CD3 on T cells (cynomolgus monkey)
T1 chain: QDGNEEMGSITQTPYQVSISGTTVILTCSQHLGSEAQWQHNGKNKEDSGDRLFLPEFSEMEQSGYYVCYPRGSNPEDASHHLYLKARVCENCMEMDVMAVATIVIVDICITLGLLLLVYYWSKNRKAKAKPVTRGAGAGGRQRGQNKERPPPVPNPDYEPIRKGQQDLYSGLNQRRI

B1: BSPSMA/CD3-1900 CD3 arm (antibody, V domains shown)
VH: EVQLVESGGGLVQPGRSLRLSCAASGFTFDDYSMHWVRQAPGKGLEWVSGISWNSGSIGYADSVKGRFTISRDNAKNSLYLQMNSLRAEDTALYYCAKDGSGYGKFYHYGMDVWGQGTTVTVSS
VL: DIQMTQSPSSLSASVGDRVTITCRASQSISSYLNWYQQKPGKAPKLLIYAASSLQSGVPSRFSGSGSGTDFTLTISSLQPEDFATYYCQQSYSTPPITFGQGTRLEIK
B2: BSPSMA/CD3-1000 CD3 arm (antibody, V domains shown)
VH: B1 VH with I58K, D99Y, H108Y, M111L
VL: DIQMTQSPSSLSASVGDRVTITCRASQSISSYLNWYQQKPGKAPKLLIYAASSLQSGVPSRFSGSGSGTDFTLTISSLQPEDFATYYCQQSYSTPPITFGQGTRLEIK
B3: BSPSMA/CD3-900 CD3 arm (antibody, V domains shown)
VH: B1 VH with I58K, M111L
VL: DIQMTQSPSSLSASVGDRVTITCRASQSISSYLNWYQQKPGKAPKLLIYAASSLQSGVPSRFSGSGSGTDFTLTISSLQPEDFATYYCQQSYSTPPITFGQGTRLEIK
B4: BSPSMA/CD3-1200 CD3 arm (antibody, V domains shown)
VH: B1 VH with M111L
VL: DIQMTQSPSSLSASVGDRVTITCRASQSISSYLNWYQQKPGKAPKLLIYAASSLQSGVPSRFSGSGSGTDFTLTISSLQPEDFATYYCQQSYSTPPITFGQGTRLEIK
B5: BSPSMA/CD3-2100 CD3 arm (antibody, V domains shown)
VH: B1 VH with I58K, H108Y
VL: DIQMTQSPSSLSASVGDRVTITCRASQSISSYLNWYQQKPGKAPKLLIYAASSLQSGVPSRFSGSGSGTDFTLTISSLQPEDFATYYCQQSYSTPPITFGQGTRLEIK
B6: BSPSMA/CD3-1600 CD3 arm (antibody, V domains shown)
VH: B1 VH with I58K
VL: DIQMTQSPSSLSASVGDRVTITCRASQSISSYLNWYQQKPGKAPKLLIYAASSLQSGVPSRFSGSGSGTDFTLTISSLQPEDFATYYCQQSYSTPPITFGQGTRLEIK
B7: BSPSMA/CD3-1500 CD3 arm (antibody, V domains shown)
VH: B1 VH with I58K, H108Y, M111L
VL: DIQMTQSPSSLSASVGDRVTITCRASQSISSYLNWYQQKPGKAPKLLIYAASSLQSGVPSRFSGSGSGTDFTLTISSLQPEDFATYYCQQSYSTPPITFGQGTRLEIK
B8: BSPSMA/CD3-1400 PSMA arm (antibody, V domains shown)
VH: QVQLVESGGGVVQPGRSLRLSCAASGFTFSSYGMHWVRQAPGKGLEWVAVISYAGNNKYYADSVKGRFTVSRDNSKKTLYLQMNSLRSEDTAVYYCAKDSYYDFLTDPDVLDIWGQGTMVTVSS
VL: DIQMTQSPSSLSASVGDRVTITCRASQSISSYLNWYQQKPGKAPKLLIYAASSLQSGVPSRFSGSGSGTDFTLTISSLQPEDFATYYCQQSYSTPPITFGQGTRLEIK
B9: BSPSMA/CD3-005 PSMA arm (antibody, V domains shown)
VH: B8 VH
VL: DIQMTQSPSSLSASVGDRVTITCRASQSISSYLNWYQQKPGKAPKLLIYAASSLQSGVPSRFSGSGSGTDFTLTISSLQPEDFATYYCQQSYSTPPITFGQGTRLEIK
B10: BSPSMA/CD3-200 PSMA arm (antibody, V domains shown)
VH: B8 VH
VL: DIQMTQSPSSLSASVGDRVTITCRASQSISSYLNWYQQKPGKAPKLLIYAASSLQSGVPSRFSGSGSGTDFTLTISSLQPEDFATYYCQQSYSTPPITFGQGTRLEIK
B11: BSPSMA/CD3-003 PSMA arm (antibody, V domains shown)
VH: B8 VH
VL: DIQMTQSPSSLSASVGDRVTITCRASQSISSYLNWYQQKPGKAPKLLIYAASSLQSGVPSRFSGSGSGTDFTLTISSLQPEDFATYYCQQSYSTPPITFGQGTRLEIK
B12: BSPSMA/CD3-1000 PSMA arm (antibody, V domains shown)
VH: B8 VH
VL: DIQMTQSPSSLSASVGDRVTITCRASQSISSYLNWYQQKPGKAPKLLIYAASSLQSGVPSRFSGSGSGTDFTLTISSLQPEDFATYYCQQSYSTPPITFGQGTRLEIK
B13: BSPSMA/CD3-1200 PSMA arm (antibody, V domains shown)
VH: B8 VH
VL: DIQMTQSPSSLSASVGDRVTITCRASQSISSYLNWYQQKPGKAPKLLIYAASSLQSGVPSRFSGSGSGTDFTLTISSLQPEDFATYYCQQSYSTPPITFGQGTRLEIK
B14: BSPSMA/CD3-1600 PSMA arm (antibody, V domains shown)
VH: B8 VH
VL: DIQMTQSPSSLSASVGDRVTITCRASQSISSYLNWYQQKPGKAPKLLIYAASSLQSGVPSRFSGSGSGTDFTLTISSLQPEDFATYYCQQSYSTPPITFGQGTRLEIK
B15: BSPSMA/CD3-800 PSMA arm (antibody, V domains shown)
VH: B8 VH
VL: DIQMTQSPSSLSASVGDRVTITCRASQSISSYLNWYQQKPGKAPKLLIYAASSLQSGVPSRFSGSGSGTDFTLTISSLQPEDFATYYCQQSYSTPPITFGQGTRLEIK
B16: BSPSMA/CD3-1700 PSMA arm (antibody, V domains shown)
VH: B8 VH
VL: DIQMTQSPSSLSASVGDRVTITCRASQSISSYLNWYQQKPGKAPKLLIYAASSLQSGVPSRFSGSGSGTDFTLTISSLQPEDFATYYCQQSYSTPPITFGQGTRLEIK
B17: BSPSMA/CD3-400 PSMA arm (antibody, V domains shown)
VH: B8 VH
VL: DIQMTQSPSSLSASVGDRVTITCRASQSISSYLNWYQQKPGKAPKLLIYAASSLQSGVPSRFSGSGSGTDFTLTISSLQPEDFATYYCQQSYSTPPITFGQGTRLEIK
B18: BSPSMA/CD3-004 PSMA arm (antibody, V domains shown)
VH: B8 VH
VL: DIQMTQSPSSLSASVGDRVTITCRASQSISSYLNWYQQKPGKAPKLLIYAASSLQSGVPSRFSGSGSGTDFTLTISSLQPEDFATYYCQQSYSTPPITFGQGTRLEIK
B19: BSPSMA/CD3-900 PSMA arm (antibody, V domains shown)
VH: B8 VH
VL: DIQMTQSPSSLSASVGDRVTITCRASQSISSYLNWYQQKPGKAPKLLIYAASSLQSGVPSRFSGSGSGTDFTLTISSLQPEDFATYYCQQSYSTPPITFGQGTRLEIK
B20: BSPSMA/CD3-1300 PSMA arm (antibody, V domains shown)
VH: B8 VH
VL: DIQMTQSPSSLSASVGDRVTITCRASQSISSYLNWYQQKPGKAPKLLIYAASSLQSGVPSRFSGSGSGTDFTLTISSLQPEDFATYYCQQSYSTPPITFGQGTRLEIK
B21: BSPSMA/CD3-2100 PSMA arm (antibody, V domains shown)
VH: B8 VH
VL: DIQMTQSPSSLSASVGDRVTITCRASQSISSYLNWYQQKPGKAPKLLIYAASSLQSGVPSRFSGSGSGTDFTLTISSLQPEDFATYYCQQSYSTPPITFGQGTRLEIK
B22: BSPSMA/CD3-1500 PSMA arm (antibody, V domains shown)
VH: B8 VH
VL: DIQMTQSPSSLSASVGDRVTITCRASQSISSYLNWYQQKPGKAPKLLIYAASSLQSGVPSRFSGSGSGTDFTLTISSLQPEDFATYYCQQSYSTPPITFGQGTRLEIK
B23: BSPSMA/CD3-1100 PSMA arm (antibody, V domains shown)
VH: B8 VH
VL: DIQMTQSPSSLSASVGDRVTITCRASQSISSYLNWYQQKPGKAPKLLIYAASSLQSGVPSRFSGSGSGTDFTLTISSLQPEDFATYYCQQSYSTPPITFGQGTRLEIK
B24: BSPSMA/CD3-1800 PSMA arm (antibody, V domains shown)
VH: B8 VH
VL: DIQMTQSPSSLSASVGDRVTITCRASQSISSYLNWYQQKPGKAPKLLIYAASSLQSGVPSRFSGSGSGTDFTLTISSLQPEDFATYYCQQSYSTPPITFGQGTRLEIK
B25: BSPSMA/CD3-300 PSMA arm (antibody, V domains shown)
VH: B8 VH
VL: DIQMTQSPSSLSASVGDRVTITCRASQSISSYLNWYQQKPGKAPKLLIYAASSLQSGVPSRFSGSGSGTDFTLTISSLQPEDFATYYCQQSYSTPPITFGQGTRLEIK
B26: BSPSMA/CD3-1900 PSMA arm (antibody, V domains shown)
VH: B8 VH
VL: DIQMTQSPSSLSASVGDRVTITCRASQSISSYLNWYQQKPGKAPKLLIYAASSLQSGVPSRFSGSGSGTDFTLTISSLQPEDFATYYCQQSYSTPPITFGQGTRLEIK
B27: H1H5758B (antibody, V domains shown)
VH: EVQLVESGGGVVQPGRSLRLSCAASGFTFSSYGMHWVRQAPGKGLEWVTVILHDGSNRYYADSVKGRFTISRDNSKNTLYLQMNILRAEDTAVYYCTKGAMVRGVPYNHYYGMDVWGQGTTVTVSS
VL: DIVMTQSPSSLSASVGDRVTITCRASQGIRNDLGWYQQKPGKAPKRLIYAASNLQSGVPSRFSGSGSGTEFTLTISSLQPEDFATYYCLQHNSYPYTFGQGTKLEIKR
B28: H1H5786B (antibody, V domains shown)
VH: QVQLVESGAEVKKPGASVKVSCKTSGYTFTGYYMHWIRQAPGQGLEWMGWINPKSGGTNYAQKFQGRVTMTRDTSISTAYMELSRLRSDDMAVYYCARMGDGAVFDFWGQGTLVTVSS
VL: AIQMTQSPSSLSASVGDRVTITCRASQRISSFLNWYQQKPGKAPKLLIYTASNLQNGVPSRFSGSGSGTDFTLTISSLQPEDFATYYCQQSYRTPLTFGGGTKVEIKR
B29: BSPSMA/CD3-001 CD3 arm (antibody, V domains shown)
VH: EVQLVESGGGLVQPGRSLRLSCVASGFTFADFTMHWVRQAPGKGLEWVSGISWNSNSIDYADSVKGRFTISRDNAKKSLFLQMSSLRAEDTALYYCVKDRSGYSRFYYGMDVWGQGTTVTVSS
VL: EIVMTQSPATLSVSPGERAILSCRASQNINSNLAWYQQKPGQAPRLLIYGASTRATGVPARFSGSGSGTEFTLTIRSLQSEDFAVYYCQQYYNWPITFGHGTRLEIK
B30: BSPSMA/CD3-1400 CD3 arm (antibody, V domains shown)
VH: B1 VH with D99Y
VL: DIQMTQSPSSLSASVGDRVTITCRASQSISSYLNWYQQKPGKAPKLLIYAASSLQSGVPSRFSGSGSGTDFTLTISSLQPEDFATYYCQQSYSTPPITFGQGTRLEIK
B31: BSPSMA/CD3-005 CD3 arm (antibody, V domains shown)
VH: B1 VH with D99Y, H108Y
VL: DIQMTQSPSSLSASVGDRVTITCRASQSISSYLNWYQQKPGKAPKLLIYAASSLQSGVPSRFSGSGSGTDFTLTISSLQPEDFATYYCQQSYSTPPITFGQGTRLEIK
B32: BSPSMA/CD3-1700 CD3 arm (antibody, V domains shown)
VH: B1 VH with I58K, D99Y, H108Y
VL: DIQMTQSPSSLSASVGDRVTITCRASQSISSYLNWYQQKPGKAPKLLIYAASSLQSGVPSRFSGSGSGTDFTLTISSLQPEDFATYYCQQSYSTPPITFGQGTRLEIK
B33: BSPSMA/CD3-800 CD3 arm (antibody, V domains shown)
VH: B1 VH with D99Y, M111L
VL: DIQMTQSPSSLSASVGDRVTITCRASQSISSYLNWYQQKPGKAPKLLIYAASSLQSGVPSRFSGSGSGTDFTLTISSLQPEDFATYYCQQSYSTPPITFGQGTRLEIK
B34: BSPSMA/CD3-003 CD3 arm (antibody, V domains shown)
VH: B1 VH with I58K, D99Y, M111L
VL: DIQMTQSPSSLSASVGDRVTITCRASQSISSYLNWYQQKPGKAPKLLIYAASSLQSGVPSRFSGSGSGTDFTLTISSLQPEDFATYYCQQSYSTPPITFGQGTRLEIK

Biological target: T1, cynomolgus CD3 on T cells
Experiment: FACS

| binding result | Binder |
| --- | --- |
| no binding | B1 |
| no binding | B2 |
| no binding | B3 |
| no binding | B4 |
| no binding | B5 |
| no binding | B6 |
| no binding | B7 |

Each binder was assayed against human PSMA on cells (human) (assay: FACS, B16F10.9/PSMA).
Sequence of human PSMA on cells (human) (A4UU12 whole entry): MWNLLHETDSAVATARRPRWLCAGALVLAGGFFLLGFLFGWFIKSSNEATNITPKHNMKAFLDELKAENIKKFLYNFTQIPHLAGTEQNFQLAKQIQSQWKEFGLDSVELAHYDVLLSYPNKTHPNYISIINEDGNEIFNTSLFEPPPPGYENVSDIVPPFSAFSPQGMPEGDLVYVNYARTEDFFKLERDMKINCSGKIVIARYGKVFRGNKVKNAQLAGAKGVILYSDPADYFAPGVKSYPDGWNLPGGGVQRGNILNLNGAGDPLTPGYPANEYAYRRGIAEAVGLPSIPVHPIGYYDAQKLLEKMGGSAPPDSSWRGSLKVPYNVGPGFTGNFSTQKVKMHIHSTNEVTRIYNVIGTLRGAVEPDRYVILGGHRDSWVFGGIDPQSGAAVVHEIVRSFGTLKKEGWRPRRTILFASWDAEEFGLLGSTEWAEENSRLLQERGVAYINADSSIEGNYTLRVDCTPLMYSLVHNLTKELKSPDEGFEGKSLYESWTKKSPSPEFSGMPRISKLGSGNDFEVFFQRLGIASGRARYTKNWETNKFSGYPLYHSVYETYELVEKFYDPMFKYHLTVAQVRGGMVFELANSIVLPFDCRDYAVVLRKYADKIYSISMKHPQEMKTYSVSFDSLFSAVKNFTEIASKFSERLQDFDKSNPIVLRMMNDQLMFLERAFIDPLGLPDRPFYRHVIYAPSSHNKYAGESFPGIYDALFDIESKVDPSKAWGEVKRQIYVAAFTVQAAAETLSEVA

| EC50 [nM] | Binder |
| --- | --- |
| 1.3 | B8 |
| 2.09 | B9 |
| 1.88 | B10 |
| 2.26 | B11 |
| 1.19 | B12 |
| 1.16 | B13 |
| 1.03 | B14 |
| 1.31 | B15 |
| 1.34 | B16 |
| 1.72 | B17 |
| 1.31 | B18 |
| 1.43 | B19 |
| 1.25 | B20 |
| 1.14 | B21 |
| 1.21 | B22 |
| 1.03 | B23 |
| 2.16 | B24 |
| 1.9 | B25 |
| 1.35 | B26 |

What follows are binders tested against human CD3 on Jurkat cells (human) (assay: FACS).
Sequence of human CD3 on Jurkat cells (human) (chain, as listed by the source, chain 1 of 2): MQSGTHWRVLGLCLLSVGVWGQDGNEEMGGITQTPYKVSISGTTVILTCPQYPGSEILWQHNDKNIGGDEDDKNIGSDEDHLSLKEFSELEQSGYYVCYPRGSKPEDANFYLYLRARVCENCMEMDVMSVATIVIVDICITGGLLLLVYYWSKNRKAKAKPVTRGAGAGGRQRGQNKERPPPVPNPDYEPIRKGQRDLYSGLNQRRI
Sequence of human CD3 on Jurkat cells (human) (chain, as listed by the source, chain 2 of 2): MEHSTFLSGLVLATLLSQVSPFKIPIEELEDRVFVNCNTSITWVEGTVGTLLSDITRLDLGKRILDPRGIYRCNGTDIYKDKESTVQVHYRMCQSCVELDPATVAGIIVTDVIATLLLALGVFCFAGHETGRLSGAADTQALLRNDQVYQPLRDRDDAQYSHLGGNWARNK

| EC50 [nM] | Binder |
| --- | --- |
| 1.9 | B27 |
| 1.1 | B28 |

Biological target: human CD3 on Jurkat cells (human)
Experiment: FACS
Remark: another data set of the same source

| EC50 [nM] | Binder |
| --- | --- |
| 39.1 | B29 |
| 60.7 | B1 |
| 277 | B2 |
| 274 | B3 |
| 47.2 | B4 |
| 106 | B5 |
| 31.9 | B30 |
| 56.8 | B6 |
| 210 | B31 |
| 200 | B32 |
| 93 | B7 |

What follows are binders tested against human CD3 epsilon/delta heterodimer, Fc-tagged (human) (assay: SPR, 37C).
Sequence of human CD3 epsilon/delta heterodimer, Fc-tagged (human) (chain, as listed by the source mutant, chain 1 of 2): as the sequence (chain, as listed by the source, chain 1 of 2) above
Sequence of human CD3 epsilon/delta heterodimer, Fc-tagged (human) (chain, as listed by the source mutant, chain 2 of 2): as the sequence (chain, as listed by the source, chain 2 of 2) above

| Kd [nM] | Binder |
| --- | --- |
| 115 | B1 |
| 185 | B2 |
| 113 | B3 |
| 64.2 | B4 |
| 77.5 | B5 |
| 53.3 | B30 |
| 37.8 | B6 |
| 334 | B31 |
| 19.4 | B33 |
| 65.2 | B32 |
| 82.9 | B7 |
| 5.78 | B34 |

Biological target: T1, cynomolgus CD3 on T cells
Experiment: FACS
Remark: another data set of the same source

| EC50 [nM] | Binder |
| --- | --- |
| 170 | B30 |
| 6140 | B31 |
| 19.6 | B33 |
| 3350 | B32 |
| 14.2 | B34 |
